± gives the uncertainty stated by the source.
Test: amyloid nucleation score (Sup35N fusion, yeast selection) (log enrichment); library NNK3; higher = more nucleation; inactive = no reads after selection
Summary of the method: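 Psi-negative yeast expressed Sup35N fused to peptides of 20 random codons. They were induced 24 hours with 100 μM copper sulfate, grown 7 days at 30°C without adenine and uracil, and their plasmid inserts from input and output were Illumina-sequenced. The nucleation score is the DiMSum log enrichment of output over input reads, centred on the mode score of non-aggregating sequences. Sequences with under 100 input reads were excluded.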

Substance | amyloid nucleation score
NSYGPRKSSGRVAPF | inactive
MSTVRHVRWRQGQGKMRGRK | inactive
SGSGFQLLDGLTTRFSVVTF | inactive
CVYGPRFNF | 1.94 ± 0.067
RNSVFLCKGIQVYLVLVIVV | inactive
NFRSSI | inactive
YQICGCSCLSYLPFLTSSIF | inactive
NMVPNCDLLMKSRLKVSNSA | inactive
TRRGHHCQFLVSGSGIAL | inactive
RYTWTTDYNVM | inactive
TVSICSGVSRVWKHLHYMMV | inactive
EYDSYSKIYWHISLAVFILI | inactive
CCAVLFRGVRGMVRCNWNFD | inactive
KCGIQLICMWFS | 1.47 ± 0.14
NVLLCINTRYR | 1.35 ± 0.077
NICCHISKSRPYQVYFSLQL | inactive
IGFNA | inactive
RMVDFADF | inactive
SQLAYVGTVKTNFDKISRCG | inactive
IVKTPVCSVTRRYPFSDRLL | inactive
GRARNHHRKNRGIGL | inactive
GSVSDGTILKLFHVSDRGTW | inactive
GLGYWAKGSHLWVLLRLLNH | inactive

Substance | amyloid nucleation score
WQIWDRVQTRKFHGEFTYMR | inactive
YPSMLPGTGSIAIMDEFVIM | inactive
CYCLLGVRLHVWIS | inactive
FNNFSYCHTDARVWVMATVM | inactive
GLDRRKICKLHGYGNS | inactive
DDECELNMRYNGREYQGTDG | inactive
HSRGENR | inactive
TKYRPCYNIVYSMFED | inactive
LRTLALPSSVFVRDVHYY | 0.987 ± 0.15
HNITPESAKVCKVRRCLGSD | 0.619 ± 0.2
WSNNMWYVRYSDFCISCLLV | inactive
SSLCTL | inactive
AHCLTRGSVTPCPLGSRAVR | inactive
GAFRTFYMLMWSYLCISGSV | inactive
WDPECSTDVISEGRGRYTEW | inactive
ARMLSVYSSESQCVTPGWCC | inactive
ILMQNSETWSLYPNTA | inactive
LAGIMCCEKVYCGPRDGVLG | 1.69 ± 0.12
SVSEFSFGSKCIVRRLGI | inactive
CIFYDSLVDWDHHYSHKGWH | inactive
RGESHVCLCYL | 0.761 ± 0.17
KVCIHSIEIV | inactive
RNVTRGYYMYFKRMVRHYWG | inactive

Substance | amyloid nucleation score
EHNNQLGIWSTYPCSNLSGH | inactive
NDRIYCGGDYPTNH | inactive
PLTPD | inactive
DFGFYWSSVGHAGLETKLYP | inactive
SCGLLWCD | -0.43 ± 1.2
NENHGCYMGRVFQCGIYEYV | 1.44 ± 0.13
KCRDLIRNVVPNSAIELDPS | inactive
FSCIMVRCYFR | inactive
LNLTGVISNLRVVNGQ | inactive
YFRYRSDVIAYISVIIGNLV | inactive
PCFEFSTSVRVFSDAKGLSV | 0.234 ± 0.25
NALILAT | inactive
LFTLTWSWQLKGFFYYHGYV | inactive
ANNLAFSRGG | -0.977 ± 1.5
QFYGLHMAFGKQVNALYTGH | inactive
RTFVNGSAEYANASHWEYPN | inactive
VDEDQLRHMWVHSD | inactive
VPMFSSLCPYTISLFQGTSP | inactive
LQPGMDFSCRFKRLTLNMVH | -0.38 ± 0.88
LTIRPFEVGRESESGFVLIS | inactive
IAGCMGNCGLCRAMVICWMN | -0.409 ± 0.7
SQQRQVMPKRQSEKLYPSH | inactive
PVHSMASQLPYNNNTTKCLV | inactive

Substance | amyloid nucleation score
GQWLSDTR | inactive
YAFVCSDV | inactive
FSLRNICSGLWILSVIAFPI | inactive
SMKEVLMTSGTSNVITSGGD | inactive
RAVYSGVSMD | inactive
LQSYRDLQTRFFLFSAHTSL | inactive
CLFSHYLV | inactive
FLLMC | inactive
YVGPKMFLVWVCDATDVGKW | inactive
QSKSYFTL | inactive
CNDLVYFMMFVLYLVTRWET | inactive
GSSYTGTEVVCKLDFSHVFR | 0.92 ± 0.13
CLGADCVAHFSYFHA | inactive
FHTLLLCSDVSSARWFADWF | inactive
RECDFFLWAYYLVNIQLRVQ | -0.27 ± 0.66
WKRNI | 0.172 ± 0.71
LRSLYSTINFKMCWICEAAS | inactive
GTLYAKSVRNKGSS | inactive
MRMNVTIRFVMFNTGLRMYG | inactive
FMEHLLYE | inactive
QLHRENEVVRYVF | inactive
SAYYCLCMLMGHHWGRNELY | 0.277 ± 0.57
SSLWSNK | inactive

Substance | amyloid nucleation score
IHCSSWFELS | inactive
VCLCNQVRLTM | inactive
YMSFFIFIPIFLCVNLDRVC | 2.38 ± 0.061
ITNFIRWNTNV | inactive
FFARDVRSN | inactive
QILLFSFRVLFAGYRKIAST | inactive
HERILATGVFEMDLGMLVFR | inactive
RLCNHKILDPACVLTSQVPI | inactive
RRYEFLGGTEGSARRLDSKP | inactive
SQFDAYPCKMFHVYKNYP | inactive
NMFRFLMCSSTRHYVRIMTN | inactive
WIMISKSSMPMTPDAVQAMG | inactive
GVLASIKELH | inactive
YLCIKNRLDKDRSW | inactive
VQLFSQNALPMFNSWKYYDH | inactive
NLRWSLIFMFGDCWGACGCG | 0.476 ± 0.23
RISLCVHFILFCFPSSRQSL | 0.815 ± 0.12
KCNPVINFLWEMVLSDVFPL | inactive
LYLYI | inactive
STYDRVKNLYVRRSAVVLPS | inactive
HLSRNVRLS | inactive
ANWVVVLLNRQASLGRFAYV | inactive
AYAIGHEDCEVYQLLVKLLG | inactive

Substance | amyloid nucleation score
HTTIQETFVRIPRLCRWHRR | inactive
SVVLRYVLRYNRSACESRRR | 0.441 ± 0.21
KLEREMADNDVARGGQLVLG | inactive
TWESGENLTLTWAAQMGRCG | inactive
VTNPLGPFMDRF | inactive
TFCVQYESRFRFQESESLHM | inactive
SYNHEKLK | inactive
PMGNRAWFPFLYEDQKPRIS | inactive
SFGLWNLRTYTAVIASSWEL | inactive
GCSLGTHSVTLTFM | inactive
FLPWDFKASKKEPYSKYMNL | inactive
LIQPKSR | inactive
RSVNGVTLGTARYHAVERVL | inactive
QFKLHCYRGMVVNHSLMCDT | inactive
MGKTRLADLRVYRTVWLFSR | inactive
ALALMFVEGCVIYMGIGC | 1.93 ± 0.076
QFCSI | inactive
LLRSYFVVAC | inactive
IRSKCR | inactive
ICELPNIYDVS | inactive
LTGACVLNR | 0.106 ± 1
CMVLRYVTVVSGMSQAKRMY | inactive
ALSNN | inactive

Substance | amyloid nucleation score
FNFLVWAQ | inactive
PTTCSNFSAYWNVCDPHNIS | inactive
RYDLSVSIATMVNVYFLLRG | inactive
LCLLYIGTSTIYGHECPDKT | inactive
CANAYWDVCCCYVFLMGLGG | -0.268 ± 1.1
ILTGILDFFFGTSNSRYRNG | inactive
VTCETSGADVVSTR | inactive
LSELVLSWMQMDSCTRFDMC | inactive
QDLMRTEHFNYS | inactive
AVYSWCARTYSILSTLRGEF | inactive
VLTVYDCGLEQPW | inactive
LIIHIFLVWDWSSIERRSIS | inactive
FTNISVNNAVFVFVVCTAV | 2.52 ± 0.054
VMIVRLYVIYPMFEVKP | inactive
RHRIRWSMRRNWSACVQ | inactive
FHEFSTSFWSFEASLLTARL | inactive
DKGQRVNSSGRVCNMNMGYW | inactive
FDLFFACFPSRETGLKSCKT | inactive
VGRRDN | inactive
SFNSVDTRLWTVPRWERMVN | inactive
VRSRRLLCKNRTVVEARNVV | inactive
